Test [1] addresses T1, CD137 (human, UniProt Q07011 24-186).
T1 construct: In the reporter assay it is whole, on GS-H2-huCD137 cells; also called 4-1BB; huCD137
As to the kind of experiment: CD137 binding, FCM or ELISA. A general note: In an ELISA, binding on a coated surface is turned into a signal by an enzyme label.

The target in the next test is CD3 (human). As to the kind of experiment: CD3 binding, as described in Example 2 (ELISA or FCM).
The next test deals with T2, B7H3 (human, UniProt Q5ZPR3 29-466, limits assumed).
T2 construct: Tumor associated antigen; also called huB7H3
T2 sequence (looked up): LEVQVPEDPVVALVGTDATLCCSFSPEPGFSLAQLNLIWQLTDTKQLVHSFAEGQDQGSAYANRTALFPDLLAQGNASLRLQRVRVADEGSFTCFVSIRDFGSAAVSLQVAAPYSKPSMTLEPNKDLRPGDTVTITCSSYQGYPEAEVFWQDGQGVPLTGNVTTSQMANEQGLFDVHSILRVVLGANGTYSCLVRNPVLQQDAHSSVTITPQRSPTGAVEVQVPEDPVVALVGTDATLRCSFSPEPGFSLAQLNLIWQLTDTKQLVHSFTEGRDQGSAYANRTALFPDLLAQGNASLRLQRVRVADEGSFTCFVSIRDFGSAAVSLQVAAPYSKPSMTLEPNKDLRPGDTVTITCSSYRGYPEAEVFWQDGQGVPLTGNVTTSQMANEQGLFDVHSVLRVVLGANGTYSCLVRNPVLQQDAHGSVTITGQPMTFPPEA
Description: FCM or ELISA.

Test [2] concerns the target T3, CD137 (human, UniProt Q07011 24-186).
T3 construct: Reporter assays used GS-H2-huCD137 cells expressing human CD137; also called 4-1BB/CD137; huCD137
As to the kind of experiment: CD137 binding by FCM or ELISA.

Positions count from the first letter of the chain named.

A word on the EC50: it is the concentration at which the effect is half-maximal. Low values mean a more potent agent, high ones a less potent agent.

CD3 (human), sequence (chain, as listed by the source): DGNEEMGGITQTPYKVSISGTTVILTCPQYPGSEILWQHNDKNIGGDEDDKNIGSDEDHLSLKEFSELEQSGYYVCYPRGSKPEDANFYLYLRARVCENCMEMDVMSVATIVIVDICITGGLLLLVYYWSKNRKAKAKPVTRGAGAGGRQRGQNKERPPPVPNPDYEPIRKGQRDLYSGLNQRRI

B1: Ly1966 (other)
chain 1: QVQLQQSGAELVRPGSSVKISCKASGYAFSSYWMNWVKQRPGQGLEWIGQIWPGDGDTNYNGKFKGKATLTADESSSTAYMQLSSLASEDSAVYFCARRETTTVGRYYYAMDYWGQGTTVTVSSASTKGPSVFPLAPSSKSTSGGTAALGCLVKDYFPEPVTVSWNSGALTSGVHTFPAVLQSSGLYSLSSVVTVPSSSLGTQTYICNVNHKPSNTKVDKKVEPKSCGGGGSGGGGSGGGGSGGGGSEVQLVESGGGLVQPGGSLRLSCAASGFTFSTYAMNWVRQAPGKGLEWVGRIRSKYNNYATYYADSVKGRFTISRDDSKNSLYLQMNSLKTEDTAVYYCVRHGNFGNSYVSWFAYWGQGTLVTVSSGGGGSDKTHTCPPCPAPEAAGPSVFLFPPKPKDTLMISRTPEVTCVVVDVSHEDPEVKFNWYVDGVEVHNAKTKPREEQYNSTYRVVSVLTVLHQDWLNGKEYKCKVSNKALPAPIEKTISKAKGQPREPQVYTLPPSREEMTKNQVSLWCLVKGFYPSDIAVEWESNGQPENNYKTTPPVLDSDGSFFLYSKLTVDKSRWQQGNVFSCSVMHEALHNHYTQKSLSLSPGGGGGSGGGGSGGGGSGGGGSQVQLVQSGAEVKKPGASVKVSCKASGYTFAGFEMHWVRQAPGQGLEWMGAIDPKTGGTDYNQKFKDRVTMTRDTSISTAYMELSRLRSDDTAVYYCARDLGYFDVWGQGTLVTVSS
chain 2: QVQLQQSGAELVRPGSSVKISCKASGYAFSSYWMNWVKQRPGQGLEWIGQIWPGDGDTNYNGKFKGKATLTADESSSTAYMQLSSLASEDSAVYFCARRETTTVGRYYYAMDYWGQGTTVTVSSASTKGPSVFPLAPSSKSTSGGTAALGCLVKDYFPEPVTVSWNSGALTSGVHTFPAVLQSSGLYSLSSVVTVPSSSLGTQTYICNVNHKPSNTKVDKKVEPKSCGGGGSGGGGSGGGGSGGGGSQAVVTQEPSLTVSPGGTVTLTCRSSTGAVTTSNYANWVQQKPGQAPRGLIGGTNKRAPWTPARFSGSLLGGKAALTITGAQAEDEADYYCALWYSNLWVFGGGTKLTVLGGGGSDKTHTCPPCPAPEAAGPSVFLFPPKPKDTLMISRTPEVTCVVVDVSHEDPEVKFNWYVDGVEVHNAKTKPREEQYNSTYRVVSVLTVLHQDWLNGKEYKCKVSNKALPAPIEKTISKAKGQPREPQVYTLPPSREEMTKNQVSLSCAVKGFYPSDIAVEWESNGQPENNYKTTPPVLDSDGSFFLVSKLTVDKSRWQQGNVFSCSVMHEALHNRFTQKSLSLSPGGGGGSGGGGSGGGGSGGGGSDIQMTQSPSSLSASVGDRVTITCRASQDIRSNLNWYQQKPGGAVKLLIYYTSRLHSGVPSRFSGSGSGTDYTLTISSLQPEDFATYFCQQSEKLPRTFGGGTKVEIR
light: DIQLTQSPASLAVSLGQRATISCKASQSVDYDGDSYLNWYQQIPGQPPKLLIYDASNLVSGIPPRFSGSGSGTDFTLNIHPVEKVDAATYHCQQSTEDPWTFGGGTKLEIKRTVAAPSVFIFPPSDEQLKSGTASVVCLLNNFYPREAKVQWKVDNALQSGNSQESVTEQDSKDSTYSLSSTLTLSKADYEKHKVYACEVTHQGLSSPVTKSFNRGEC
notes: Tri-specific antibody: CD19 Fabs, central CD3 Fv, terminal CD137 Fv
As for B1, in the test with CD137 [1], the binding result is listed as “binds”. This molecule showed an EC50 in the test with CD3 of 0.348 µg/mL.

B2: Ly1967 (other)
chain 1: B1 chain 1
chain 2: B1 chain 2 with R575H, F576Y
light: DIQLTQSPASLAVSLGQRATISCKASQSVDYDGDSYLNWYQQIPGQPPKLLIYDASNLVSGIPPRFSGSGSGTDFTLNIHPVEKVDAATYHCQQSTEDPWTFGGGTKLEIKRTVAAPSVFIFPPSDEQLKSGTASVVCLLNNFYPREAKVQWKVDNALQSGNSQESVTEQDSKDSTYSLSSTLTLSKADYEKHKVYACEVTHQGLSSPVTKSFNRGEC
notes: as for B1
B2: in the test with CD137 [1], the binding result is given as “binds”. Besides, the concentration for a half-maximal effect (EC50) with CD3 came out at 1.56 µg/mL.

B3: Ly2326 (bispecific antibody, human IgG1, kappa)
chain 1: QVQLQQSGAELVRPGSSVKISCKASGYAFSSYWMNWVKQRPGQGLEWIGQIWPGDGDTNYNGKFKGKATLTADESSSTAYMQLSSLASEDSAVYFCARRETTTVGRYYYAMDYWGQGTTVTVSSASTKGPSVFPLAPSSKSTSGGTAALGCLVKDYFPEPVTVSWNSGALTSGVHTFPAVLQSSGLYSLSSVVTVPSSSLGTQTYICNVNHKPSNTKVDKKVEPKSCDKTHTCPPCPAPEAAGPSVFLFPPKPKDTLMISRTPEVTCVVVDVSHEDPEVKFNWYVDGVEVHNAKTKPREEQYNSTYRVVSVLTVLHQDWLNGKEYKCKVSNKALPAPIEKTISKAKGQPREPQVYTLPPSREEMTKNQVSLWCLVKGFYPSDIAVEWESNGQPENNYKTTPPVLDSDGSFFLYSKLTVDKSRWQQGNVFSCSVMHEALHNHYTQKSLSLSPGGGGGSGGGGSGGGGSGGGGSQVQLVQSGAEVKKPGASVKVSCKASGYTFAGFEMHWVRQAPGQGLEWMGAIDPKTGGTDYNQKFKDRVTMTRDTSISTAYMELSRLRSDDTAVYYCARDLGYFDVWGQGTLVTVSS
chain 2: QVQLQQSGAELVRPGSSVKISCKASGYAFSSYWMNWVKQRPGQGLEWIGQIWPGDGDTNYNGKFKGKATLTADESSSTAYMQLSSLASEDSAVYFCARRETTTVGRYYYAMDYWGQGTTVTVSSASTKGPSVFPLAPSSKSTSGGTAALGCLVKDYFPEPVTVSWNSGALTSGVHTFPAVLQSSGLYSLSSVVTVPSSSLGTQTYICNVNHKPSNTKVDKKVEPKSCDKTHTCPPCPAPEAAGPSVFLFPPKPKDTLMISRTPEVTCVVVDVSHEDPEVKFNWYVDGVEVHNAKTKPREEQYNSTYRVVSVLTVLHQDWLNGKEYKCKVSNKALPAPIEKTISKAKGQPREPQVYTLPPSREEMTKNQVSLSCAVKGFYPSDIAVEWESNGQPENNYKTTPPVLDSDGSFFLVSKLTVDKSRWQQGNVFSCSVMHEALHNRFTQKSLSLSPGGGGGSGGGGSGGGGSGGGGSDIQMTQSPSSLSASVGDRVTITCRASQDIRSNLNWYQQKPGGAVKLLIYYTSRLHSGVPSRFSGSGSGTDYTLTISSLQPEDFATYFCQQSEKLPRTFGGGTKVEIR
light: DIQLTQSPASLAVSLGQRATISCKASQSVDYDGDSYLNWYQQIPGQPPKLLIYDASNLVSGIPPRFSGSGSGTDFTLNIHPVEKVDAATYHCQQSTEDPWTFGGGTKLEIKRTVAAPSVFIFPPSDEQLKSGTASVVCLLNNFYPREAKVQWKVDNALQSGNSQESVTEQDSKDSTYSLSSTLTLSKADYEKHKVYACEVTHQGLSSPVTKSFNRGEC
notes: CD19 Fabs, terminal CD137 Fv
As for B3, the binding result with CD137 [1] is recorded as “binds”.

B4: Ly1963 (other)
chain 1: QVQLVQSGAEVKKPGASVKVSCKASGYTFTSYVMHWVRQKPGQGLEWIGYINPYNEGTESTDKFKGRATMTSDKSTSTVYMELSSLRSEDTAVYYCASIYYGYEGTYFGVWGQGTLVTVSSASTKGPSVFPLAPSSKSTSGGTAALGCLVKDYFPEPVTVSWNSGALTSGVHTFPAVLQSSGLYSLSSVVTVPSSSLGTQTYICNVNHKPSNTKVDKKVEPKSCGGGGSGGGGSGGGGSGGGGSEVQLVESGGGLVQPGGSLRLSCAASGFTFSTYAMNWVRQAPGKGLEWVGRIRSKYNNYATYYADSVKGRFTISRDDSKNSLYLQMNSLKTEDTAVYYCVRHGNFGNSYVSWFAYWGQGTLVTVSSGGGGSDKTHTCPPCPAPEAAGPSVFLFPPKPKDTLMISRTPEVTCVVVDVSHEDPEVKFNWYVDGVEVHNAKTKPREEQYNSTYRVVSVLTVLHQDWLNGKEYKCKVSNKALPAPIEKTISKAKGQPREPQVYTLPPSREEMTKNQVSLWCLVKGFYPSDIAVEWESNGQPENNYKTTPPVLDSDGSFFLYSKLTVDKSRWQQGNVFSCSVMHEALHNHYTQKSLSLSPGGGGGSGGGGSGGGGSGGGGSQVQLVQSGAEVKKPGASVKVSCKASGYTFAGFEMHWVRQAPGQGLEWMGAIDPKTGGTDYNQKFKDRVTMTRDTSISTAYMELSRLRSDDTAVYYCARDLGYFDVWGQGTLVTVSS
chain 2: QVQLVQSGAEVKKPGASVKVSCKASGYTFTSYVMHWVRQKPGQGLEWIGYINPYNEGTESTDKFKGRATMTSDKSTSTVYMELSSLRSEDTAVYYCASIYYGYEGTYFGVWGQGTLVTVSSASTKGPSVFPLAPSSKSTSGGTAALGCLVKDYFPEPVTVSWNSGALTSGVHTFPAVLQSSGLYSLSSVVTVPSSSLGTQTYICNVNHKPSNTKVDKKVEPKSCGGGGSGGGGSGGGGSGGGGSQAVVTQEPSLTVSPGGTVTLTCRSSTGAVTTSNYANWVQQKPGQAPRGLIGGTNKRAPWTPARFSGSLLGGKAALTITGAQAEDEADYYCALWYSNLWVFGGGTKLTVLGGGGSDKTHTCPPCPAPEAAGPSVFLFPPKPKDTLMISRTPEVTCVVVDVSHEDPEVKFNWYVDGVEVHNAKTKPREEQYNSTYRVVSVLTVLHQDWLNGKEYKCKVSNKALPAPIEKTISKAKGQPREPQVYTLPPSREEMTKNQVSLSCAVKGFYPSDIAVEWESNGQPENNYKTTPPVLDSDGSFFLVSKLTVDKSRWQQGNVFSCSVMHEALHNHYTQKSLSLSPGGGGGSGGGGSGGGGSGGGGSDIQMTQSPSSLSASVGDRVTITCRASQDIRSNLNWYQQKPGGAVKLLIYYTSRLHSGVPSRFSGSGSGTDYTLTISSLQPEDFATYFCQQSEKLPRTFGGGTKVEIR
light: EIVLTQSPATLSLSPGERATLSCRASSSVSYMHWYQQKPGQAPRPWIYATSNLASGIPARFSGSRSGTDYTLTISSLEPEDFAVYYCQQWSSNTLTFGGGTKVEIKRTVAAPSVFIFPPSDEQLKSGTASVVCLLNNFYPREAKVQWKVDNALQSGNSQESVTEQDSKDSTYSLSSTLTLSKADYEKHKVYACEVTHQGLSSPVTKSFNRGEC
In the case of B4, the binding result with B7H3 and in the test with CD137 [2] was “binds” throughout.

B5: Ly2122 (bispecific antibody, human IgG1, kappa)
chain 1: QVQLVQSGAEVKKPGASVKVSCKASGYTFTSYVMHWVRQKPGQGLEWIGYINPYNEGTESTDKFKGRATMTSDKSTSTVYMELSSLRSEDTAVYYCASIYYGYEGTYFGVWGQGTLVTVSSASTKGPSVFPLAPSSKSTSGGTAALGCLVKDYFPEPVTVSWNSGALTSGVHTFPAVLQSSGLYSLSSVVTVPSSSLGTQTYICNVNHKPSNTKVDKKVEPKSCDKTHTCPPCPAPEAAGPSVFLFPPKPKDTLMISRTPEVTCVVVDVSHEDPEVKFNWYVDGVEVHNAKTKPREEQYNSTYRVVSVLTVLHQDWLNGKEYKCKVSNKALPAPIEKTISKAKGQPREPQVYTLPPSREEMTKNQVSLWCLVKGFYPSDIAVEWESNGQPENNYKTTPPVLDSDGSFFLYSKLTVDKSRWQQGNVFSCSVMHEALHNHYTQKSLSLSPGGGGGSGGGGSGGGGSGGGGSQVQLVQSGAEVKKPGASVKVSCKASGYTFAGFEMHWVRQAPGQGLEWMGAIDPKTGGTDYNQKFKDRVTMTRDTSISTAYMELSRLRSDDTAVYYCARDLGYFDVWGQGTLVTVSS
chain 2: QVQLVQSGAEVKKPGASVKVSCKASGYTFTSYVMHWVRQKPGQGLEWIGYINPYNEGTESTDKFKGRATMTSDKSTSTVYMELSSLRSEDTAVYYCASIYYGYEGTYFGVWGQGTLVTVSSASTKGPSVFPLAPSSKSTSGGTAALGCLVKDYFPEPVTVSWNSGALTSGVHTFPAVLQSSGLYSLSSVVTVPSSSLGTQTYICNVNHKPSNTKVDKKVEPKSCDKTHTCPPCPAPEAAGPSVFLFPPKPKDTLMISRTPEVTCVVVDVSHEDPEVKFNWYVDGVEVHNAKTKPREEQYNSTYRVVSVLTVLHQDWLNGKEYKCKVSNKALPAPIEKTISKAKGQPREPQVYTLPPSREEMTKNQVSLSCAVKGFYPSDIAVEWESNGQPENNYKTTPPVLDSDGSFFLVSKLTVDKSRWQQGNVFSCSVMHEALHNRFTQKSLSLSPGGGGGSGGGGSGGGGSGGGGSDIQMTQSPSSLSASVGDRVTITCRASQDIRSNLNWYQQKPGGAVKLLIYYTSRLHSGVPSRFSGSGSGTDYTLTISSLQPEDFATYFCQQSEKLPRTFGGGTKVEIR
light: B4 light
notes: B7H3/CD137: two B7H3 Fabs, terminal CD137 Fv
For B5, the binding result with B7H3 and with CD137 [2] was “binds” each time.

The values are drawn from US20250388669A1 (published 2025).
